Target: T1, p56^RB protein (amino-truncated 56 kDa RB protein, C-terminal half of the RB protein) (Homo sapiens (Human), UniProt P06400 379-928)
T1 sequence: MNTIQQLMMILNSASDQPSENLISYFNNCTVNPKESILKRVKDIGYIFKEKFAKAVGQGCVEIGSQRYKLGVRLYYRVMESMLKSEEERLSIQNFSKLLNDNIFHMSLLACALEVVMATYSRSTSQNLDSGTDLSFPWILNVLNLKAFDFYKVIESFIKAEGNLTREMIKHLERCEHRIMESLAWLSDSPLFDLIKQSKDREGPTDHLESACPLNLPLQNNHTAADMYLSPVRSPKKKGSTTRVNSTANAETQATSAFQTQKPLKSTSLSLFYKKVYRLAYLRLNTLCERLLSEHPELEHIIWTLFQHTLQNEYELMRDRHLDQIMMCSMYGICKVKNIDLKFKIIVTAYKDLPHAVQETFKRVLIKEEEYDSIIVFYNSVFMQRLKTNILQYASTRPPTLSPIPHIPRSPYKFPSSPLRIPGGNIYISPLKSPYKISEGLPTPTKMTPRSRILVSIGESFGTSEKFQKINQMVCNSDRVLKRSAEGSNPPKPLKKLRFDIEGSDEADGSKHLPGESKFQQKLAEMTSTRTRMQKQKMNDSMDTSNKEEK
Assay: cell-based or functional assay

Binder: ENLFCSEEMPSSDDEATA [T peptide (SV40 T-antigen peptide, amino acids 101-118)]
- percent of injected cells incorporating BrdU (Saos-2 cells, 5 mM T peptide, 500 to 1000-fold molar excess over p56^RB): ~70%

— US7105156 (University of California, dated 2006)
